Like-named read-outs stand apart in the source and are kept apart here. Starred links: 1 amine or outer side, 2 acyl side, 3 side chain; linkers in the order of their positions; H or OH if unused. Non-standard residues stand in square brackets, D forms with d. Residues, ends and D or L forms follow the SMILES beside them. Groups on a side chain read outwards from the residue. No end group written: not given here. *: point of attachment. d(γGlu) = O=C(O)[C@@H](CCC(=O)[*:2])N[*:1]; C18 diacid = O=C(O)CCCCCCCCCCCCCCCCC(=O)*; AEEA = NCCOCCOCC(=O)O; Aib = CC(C)(N)C(=O)O
How the values were obtained:
hGLP-1R = hGLP-1R (Homo sapiens, UniProt P43220); assay: Cell agonistic activity at GLP-1 receptor (Example 7); type: cell-based
hGLP-1R, sequence (P43220 24-463): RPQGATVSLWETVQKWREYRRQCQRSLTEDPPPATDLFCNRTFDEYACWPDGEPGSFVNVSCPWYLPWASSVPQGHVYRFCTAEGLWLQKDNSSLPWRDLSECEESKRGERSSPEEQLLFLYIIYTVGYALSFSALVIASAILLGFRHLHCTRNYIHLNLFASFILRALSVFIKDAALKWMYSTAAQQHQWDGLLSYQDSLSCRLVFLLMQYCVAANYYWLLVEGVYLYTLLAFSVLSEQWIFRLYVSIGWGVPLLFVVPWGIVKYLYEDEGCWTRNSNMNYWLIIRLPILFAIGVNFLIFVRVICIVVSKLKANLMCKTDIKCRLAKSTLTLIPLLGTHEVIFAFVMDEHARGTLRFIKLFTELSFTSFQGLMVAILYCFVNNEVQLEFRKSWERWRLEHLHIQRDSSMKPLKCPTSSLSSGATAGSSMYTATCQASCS

[1] = target: T1, human GIP receptor (glucose-dependent insulinotropic peptide receptor, GIPR) (human, UniProt P48546 22-466); assay: cell-based or functional assay
T1 sequence (looked up): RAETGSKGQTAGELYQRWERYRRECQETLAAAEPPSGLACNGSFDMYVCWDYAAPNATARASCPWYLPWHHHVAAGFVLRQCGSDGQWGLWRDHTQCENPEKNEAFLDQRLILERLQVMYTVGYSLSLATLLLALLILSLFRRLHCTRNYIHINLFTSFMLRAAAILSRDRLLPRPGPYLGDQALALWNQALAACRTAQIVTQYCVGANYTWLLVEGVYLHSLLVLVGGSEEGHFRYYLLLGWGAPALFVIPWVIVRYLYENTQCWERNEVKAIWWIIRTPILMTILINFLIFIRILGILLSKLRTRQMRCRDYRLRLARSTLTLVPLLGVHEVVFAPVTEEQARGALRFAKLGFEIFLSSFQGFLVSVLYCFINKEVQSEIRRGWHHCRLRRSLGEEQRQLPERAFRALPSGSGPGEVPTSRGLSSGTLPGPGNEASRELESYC

human GLP-1 receptor = human GLP-1 receptor (human, UniProt P43220 24-463); assay: cell-based or functional assay

Molecule: CC[C@H](C)[C@H](NC(=O)[C@H](CO)NC(=O)[C@H](Cc1ccc(O)cc1)NC(=O)[C@H](CC(=O)O)NC(=O)[C@H](CO)NC(=O)[C@@H](NC(=O)[C@H](Cc1ccccc1)NC(=O)[C@@H](NC(=O)CNC(=O)[C@H](CCC(=O)O)NC(=O)C(C)(C)NC(=O)[C@@H](N)Cc1ccc(O)cc1)[C@@H](C)O)[C@@H](C)CC)C(=O)N[C@@H](C)C(=O)N[C@@H](CC(C)C)C(=O)N[C@@H](CC(=O)O)C(=O)N[C@@H](CCCCNC(=O)COCCOCCNC(=O)COCCOCCNC(=O)CC[C@@H](NC(=O)CCCCCCCCCCCCCCCCC(=O)O)C(=O)O)C(=O)N[C@@H](CC(C)C)C(=O)N[C@@H](Cc1c[nH]cn1)C(=O)N[C@@H](CCC(N)=O)C(=O)N[C@@H](CCC(=O)O)C(=O)N[C@@H](CC(=O)O)C(=O)N[C@@H](Cc1ccccc1)C(=O)N[C@H](C(=O)N[C@@H](CC(N)=O)C(=O)N[C@@H](Cc1c[nH]c2ccccc12)C(=O)N[C@@H](CC(C)C)C(=O)N[C@@H](CC(C)C)C(=O)N[C@@H](C)C(=O)N[C@@H](CCC(N)=O)C(=O)N[C@@H](CCCNC(=N)N)C(=O)NCC(=O)O)C(C)C [Peptide 10, N-{ε-16}-18-{[(23R)-23-carboxyl-2,11,20-trioxo-10,19-diaza-4,7,13,16-tetraoxatricosyl-23-yl]amino}-18-oxooctadecanoic acid acetyl-[Aib2, L14, L17, E20, R30]-hGIP(1-31)] (H-Y[Aib]EGTFISDYSIALDK([AEEA-AEEA-d(γGlu)-C18 diacid])LHQEDFVNWLLAQRG-OH)
- EC50 (hGLP-1R; read-out: hGLP-1R EC50): > 0.1 nM

Molecule: CC[C@H](C)[C@H](NC(=O)[C@H](CO)NC(=O)[C@H](Cc1ccc(O)cc1)NC(=O)[C@H](CC(=O)O)NC(=O)[C@H](CO)NC(=O)[C@@H](NC(=O)[C@H](Cc1ccccc1)NC(=O)[C@@H](NC(=O)CNC(=O)[C@H](CCC(=O)O)NC(=O)C(C)(C)NC(=O)[C@@H](N)Cc1ccc(O)cc1)[C@@H](C)O)[C@@H](C)CC)C(=O)N[C@@H](C)C(=O)N[C@@H](CC(C)C)C(=O)N[C@@H](CC(=O)O)C(=O)N[C@@H](CCCCN)C(=O)N[C@@H](CC(C)C)C(=O)N[C@@H](Cc1c[nH]cn1)C(=O)N[C@@H](CCC(N)=O)C(=O)N[C@@H](CCC(N)=O)C(=O)N[C@@H](CC(=O)O)C(=O)N[C@@H](Cc1ccccc1)C(=O)N[C@H](C(=O)N[C@@H](CC(N)=O)C(=O)N[C@@H](Cc1c[nH]c2ccccc12)C(=O)N[C@@H](CC(C)C)C(=O)N[C@@H](CC(C)C)C(=O)N[C@@H](C)C(=O)N[C@@H](CCC(N)=O)C(=O)N[C@@H](CCCNC(=N)N)C(=O)NCC(=O)O)C(C)C [Sequence 8] (H-Y[Aib]EGTFISDYSIALDKLHQQDFVNWLLAQRG-OH; N-terminus and C-terminus assumed)
- EC50 (hGLP-1R): > 0.1 nM

Molecule: CC[C@H](C)[C@H](NC(=O)[C@H](CO)NC(=O)[C@H](Cc1ccc(O)cc1)NC(=O)[C@H](CC(=O)O)NC(=O)[C@H](CO)NC(=O)[C@@H](NC(=O)[C@H](Cc1ccccc1)NC(=O)[C@@H](NC(=O)CNC(=O)[C@H](CCC(=O)O)NC(=O)C(C)(C)NC(=O)[C@@H](N)Cc1ccc(O)cc1)[C@@H](C)O)[C@@H](C)CC)C(=O)N[C@@H](C)C(=O)N[C@@H](CC(C)C)C(=O)N[C@@H](CC(=O)O)C(=O)N[C@@H](CCCNC(=N)N)C(=O)N[C@@H](CC(C)C)C(=O)N[C@@H](Cc1c[nH]cn1)C(=O)N[C@@H](CCC(N)=O)C(=O)N[C@@H](CCC(N)=O)C(=O)N[C@@H](CC(=O)O)C(=O)N[C@@H](Cc1ccccc1)C(=O)N[C@H](C(=O)N[C@@H](CCCCN)C(=O)N[C@@H](Cc1c[nH]c2ccccc12)C(=O)N[C@@H](CC(C)C)C(=O)N[C@@H](CC(C)C)C(=O)N[C@@H](C)C(=O)N[C@@H](CCC(N)=O)C(=O)N[C@@H](CCCNC(=N)N)C(=O)NCC(=O)O)C(C)C [Sequence 17] (H-Y[Aib]EGTFISDYSIALDRLHQQDFVKWLLAQRG-OH; N-terminus and C-terminus assumed)
- EC50 (hGLP-1R): > 0.1 nM

Molecule: CC[C@H](C)[C@H](NC(=O)[C@H](CO)NC(=O)[C@H](Cc1ccc(O)cc1)NC(=O)[C@H](CC(=O)O)NC(=O)[C@H](CO)NC(=O)[C@@H](NC(=O)[C@H](Cc1ccccc1)NC(=O)[C@@H](NC(=O)CNC(=O)[C@H](CCC(=O)O)NC(=O)C(C)(C)NC(=O)[C@@H](N)Cc1ccc(O)cc1)[C@@H](C)O)[C@@H](C)CC)C(=O)N[C@@H](C)C(=O)N[C@@H](CC(C)C)C(=O)N[C@@H](CC(=O)O)C(=O)N[C@@H](CCCCN)C(=O)N[C@H](C(=O)N[C@@H](Cc1c[nH]cn1)C(=O)N[C@@H](CCC(N)=O)C(=O)N[C@@H](CCC(N)=O)C(=O)N[C@@H](CC(=O)O)C(=O)N[C@@H](Cc1ccccc1)C(=O)N[C@H](C(=O)N[C@@H](CC(N)=O)C(=O)N[C@@H](Cc1c[nH]c2ccccc12)C(=O)N[C@@H](CC(C)C)C(=O)N[C@@H](CC(C)C)C(=O)N[C@@H](C)C(=O)N[C@@H](CCC(N)=O)C(=O)N[C@@H](CCCNC(=N)N)C(=O)NCC(=O)O)C(C)C)[C@@H](C)CC [Sequence 7] (H-Y[Aib]EGTFISDYSIALDKIHQQDFVNWLLAQRG-OH; N-terminus and C-terminus assumed)
- EC50 (hGLP-1R): > 0.1 nM

B1: Sequence 4 (Seq ID. 4) (peptide)
peptide: Y[Aib]EGTFISDYSIALDEIHQKDFVKWLLAQKG
- EC50(pM), cell agonistic activity (cAMP, HTRF) [1]: 2.87 pM
- EC50(pM), cell agonistic activity (human GLP-1 receptor): > 100 pM

B2: Sequence 17 (Seq ID. 17) (peptide)
peptide: Y[Aib]EGTFISDYSIALDRLHQQDFVKWLLAQRG
- EC50(pM), cell agonistic activity (cAMP, HTRF) [1]: 58.2 pM
- EC50(pM), cell agonistic activity (human GLP-1 receptor): > 100 pM

B3: Sequence 13 (Seq ID. 13) (peptide)
peptide: Y[Aib]EGTFISDYSIALDRIHQQDFVKWLLAQRG
- EC50(pM), cell agonistic activity (cAMP, HTRF) [1]: 36.2 pM
- EC50(pM), cell agonistic activity (human GLP-1 receptor): > 100 pM

B4: Sequence 11 (Seq ID. 11) (peptide)
peptide: Y[Aib]EGTFISDYSIALDRIHQEDFVKWLLAQRG
- EC50(pM), cell agonistic activity (cAMP, HTRF) [1]: 3.44 pM
- EC50(pM), cell agonistic activity (human GLP-1 receptor): > 100 pM

B5: Sequence 14 (Seq ID. 14) (peptide)
peptide: Y[Aib]EGTFISDYSIALDRIHQQDFVNWLLAQKG
- EC50(pM), cell agonistic activity (cAMP, HTRF) [1]: 18.4 pM
- EC50(pM), cell agonistic activity (human GLP-1 receptor): > 100 pM

B6: Sequence 8 (Seq ID. 8) (peptide)
peptide: Y[Aib]EGTFISDYSIALDKLHQQDFVNWLLAQRG
- EC50(pM), cell agonistic activity (cAMP, HTRF) [1]: 11.7 pM
- EC50(pM), cell agonistic activity (human GLP-1 receptor): > 100 pM

B7: Sequence 7 (Seq ID. 7) (peptide)
peptide: Y[Aib]EGTFISDYSIALDKIHQQDFVNWLLAQRG
- EC50(pM), cell agonistic activity (cAMP, HTRF) [1]: 6.04 pM
- EC50(pM), cell agonistic activity (human GLP-1 receptor): > 100 pM

B8: Sequence 3 (Seq ID. 3) (peptide)
peptide: Y[Aib]EGTFISDYSIALDKIHQEDFVKWLLAQKG
- EC50(pM), cell agonistic activity (cAMP, HTRF) [1]: 3.41 pM
- EC50(pM), cell agonistic activity (human GLP-1 receptor): > 100 pM

B9: Sequence 6 (Seq ID. 6) (peptide)
peptide: Y[Aib]EGTFISDYSIALDELHQKDFVNWLLAQRG
- EC50(pM), cell agonistic activity (cAMP, HTRF) [1]: 7.93 pM
- EC50(pM), cell agonistic activity (human GLP-1 receptor): > 100 pM

B10: Sequence 12 (Seq ID. 12) (peptide)
peptide: Y[Aib]EGTFISDYSIALDRIHQEDFVNWLLAQKG
- EC50(pM), cell agonistic activity (cAMP, HTRF) [1]: 0.81 pM
- EC50(pM), cell agonistic activity (human GLP-1 receptor): > 100 pM

B11: Sequence 15 (Seq ID. 15) (peptide)
peptide: Y[Aib]EGTFISDYSIALDRLHQEDFVKWLLAQRG
- EC50(pM), cell agonistic activity (cAMP, HTRF) [1]: 27.2 pM
- EC50(pM), cell agonistic activity (human GLP-1 receptor): > 100 pM

B12: Sequence 2 (Seq ID. 2) (peptide)
peptide: Y[Aib]EGTFISDYSI[Aib]LDEIHQKDFVKWLLAQKG
- EC50(pM), cell agonistic activity (cAMP, HTRF) [1]: 10.7 pM
- EC50(pM), cell agonistic activity (human GLP-1 receptor): > 100 pM

B13: Sequence 18 (Seq ID. 18) (peptide)
peptide: Y[Aib]EGTFISDYSIALDRLHQQDFVNWLLAQKG
- EC50(pM), cell agonistic activity (cAMP, HTRF) [1]: 16.9 pM
- EC50(pM), cell agonistic activity (human GLP-1 receptor): > 100 pM

B14: Sequence 16 (Seq ID. 16) (peptide)
peptide: Y[Aib]EGTFISDYSIALDRLHQEDFVNWLLAQKG
- EC50(pM), cell agonistic activity (cAMP, HTRF) [1]: 25.5 pM
- EC50(pM), cell agonistic activity (human GLP-1 receptor): > 100 pM

B15: Sequence 9 (Seq ID. 9) (peptide)
peptide: Y[Aib]EGTFISDYSIALDKIHQEDFVNWLLAQRG
- EC50(pM), cell agonistic activity (cAMP, HTRF) [1]: 16.4 pM
- EC50(pM), cell agonistic activity (human GLP-1 receptor): > 100 pM

B16: Sequence 1 (Seq ID. 1) (peptide)
peptide: Y[Aib]EGTFISDYSI[Aib]LDKIHQEDFVKWLLAQKG
- EC50(pM), cell agonistic activity (cAMP, HTRF) [1]: 2.38 pM
- EC50(pM), cell agonistic activity (human GLP-1 receptor): > 100 pM

B17: Sequence 5 (Seq ID. 5) (peptide)
peptide: Y[Aib]EGTFISDYSIALDEIHQKDFVNWLLAQRG
- EC50(pM), cell agonistic activity (cAMP, HTRF) [1]: 6.12 pM
- EC50(pM), cell agonistic activity (human GLP-1 receptor): > 100 pM

B18: Sequence 10 (Seq ID. 10) (peptide)
peptide: Y[Aib]EGTFISDYSIALDKLHQEDFVNWLLAQRG
- EC50(pM), cell agonistic activity (cAMP, HTRF) [1]: 1.63 pM
- EC50(pM), cell agonistic activity (human GLP-1 receptor): > 100 pM

Source: patent US20240239863A1, “GIP RECEPTOR AGONIST AND USE THEREOF” (HANGZHOU ZHONGMEIHUADONG PHARMACEUTICAL CO., LTD., priority 2022, published 2024)
